Data on 125 sequences can be found in the supplement of paper PMC9112550, “Optimization of the antimicrobial peptide Bac7 by deep mutational scanning” (BMC Biology, 2022).

This data set relates to Escherichia coli TOP10. The data set is described as follows: shrunken log2 fold change of peptide-encoding DNA abundance (4.5 h post-induction vs induction); higher = less antimicrobial activity (less host growth inhibition). The settings on record: time post-induction: 4.5 h; library: site-saturation at positions 5, 18, 19, 20.
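Further: peptides expressed intracellularly from a pBAD plasmid library in pooled LB shake-flask culture, induced with 0.3% L-arabinose, DNA abundance read by NGS, three biological replicates, DESeq2 with apeglm shrinkage.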

On to RRIRVRPPRLPRPRPRPMLPPRP, for which the “shrunken log2 fold change” value was 0.0351.

Consider RRIRHRPPRLPRPRPRPGIPPRP, for which the “shrunken log2 fold change” value turned out to be 0.0292.

For RRIRVRPPRLPRPRPRPIMIPRP, the “shrunken log2 fold change” value was -1.08.

As for RRIRDRPPRLPRPRPRPFHMPRP, the “shrunken log2 fold change” value came to 0.0426.

Consider RRIRSRPPRLPRPRPRPTPKPRP, for which the “shrunken log2 fold change” value is 0.697.

With RRIRWRPPRLPRPRPRPGADPRP, the “shrunken log2 fold change” value was determined as 0.839.

As for RRIRLRPPRLPRPRPRPDWRPRP, the “shrunken log2 fold change” value was found to be 0.0715.

Regarding RRIRQRPPRLPRPRPRPHIVPRP, the “shrunken log2 fold change” value is -0.225.

With RRIRARPPRLPRPRPRPNFFPRP, the “shrunken log2 fold change” value was 0.349.

For the sequence RRIRTRPPRLPRPRPRPMGAPRP, the “shrunken log2 fold change” value is -0.0569.

Turning to RRIRERPPRLPRPRPRPEFRPRP, the “shrunken log2 fold change” value is -0.274.

For the sequence RRIRYRPPRLPRPRPRPFWYPRP, the “shrunken log2 fold change” value is -0.234.

In the case of RRIRIRPPRLPRPRPRPYPVPRP, the “shrunken log2 fold change” value is -0.18.

Consider RRIRGRPPRLPRPRPRPAHLPRP, for which the “shrunken log2 fold change” value stood at 0.768.

Regarding RRIRFRPPRLPRPRPRPPCRPRP, the “shrunken log2 fold change” value stood at 0.172.

As for RRIRHRPPRLPRPRPRPFTIPRP, the “shrunken log2 fold change” value was -0.0345.

On to RRIRVRPPRLPRPRPRPVCGPRP, for which the “shrunken log2 fold change” value turned out to be 0.211.

In the case of RRIRQRPPRLPRPRPRPCDVPRP, the “shrunken log2 fold change” value was -0.15.

RRIRIRPPRLPRPRPRPWICPRP: the “shrunken log2 fold change” value is -0.132.

Regarding RRIRVRPPRLPRPRPRPYMSPRP, the “shrunken log2 fold change” value is -0.583.

Turning to RRIRFRPPRLPRPRPRPMPFPRP, the “shrunken log2 fold change” value was -0.0201.

RRIRERPPRLPRPRPRPMEYPRP: the “shrunken log2 fold change” value was -0.00776.

For RRIRSRPPRLPRPRPRPTAFPRP, the “shrunken log2 fold change” value is 0.534.

For the sequence RRIRARPPRLPRPRPRPTVDPRP, the “shrunken log2 fold change” value is 0.732.

On to RRIRTRPPRLPRPRPRPTMRPRP, for which the “shrunken log2 fold change” value came to 0.867.

Regarding RRIRFRPPRLPRPRPRPPRVPRP, the “shrunken log2 fold change” value stood at 0.605.

On to RRIRYRPPRLPRPRPRPNLWPRP, for which the “shrunken log2 fold change” value was found to be 0.00221.

For the sequence RRIRGRPPRLPRPRPRPKRHPRP, the “shrunken log2 fold change” value was determined as 1.

RRIRQRPPRLPRPRPRPNTCPRP: the “shrunken log2 fold change” value was -1.35.

Consider RRIRYRPPRLPRPRPRPKGVPRP, for which the “shrunken log2 fold change” value was 0.028.

Regarding RRIRTRPPRLPRPRPRPYAQPRP, the “shrunken log2 fold change” value is -0.495.

In the case of RRIRMRPPRLPRPRPRPFMCPRP, the “shrunken log2 fold change” value was -0.171.

RRIRRRPPRLPRPRPRPYWTPRP: the “shrunken log2 fold change” value amounted to 0.000827.

In the case of RRIRHRPPRLPRPRPRPTEAPRP, the “shrunken log2 fold change” value was -0.00626.

As for RRIRDRPPRLPRPRPRPPLAPRP, the “shrunken log2 fold change” value amounted to 0.448.

Regarding RRIRTRPPRLPRPRPRPDYMPRP, the “shrunken log2 fold change” value was -0.687.

Consider RRIRHRPPRLPRPRPRPVIRPRP, for which the “shrunken log2 fold change” value is 0.00766.

Regarding RRIRLRPPRLPRPRPRPAHEPRP, the “shrunken log2 fold change” value was 0.408.

Consider RRIRERPPRLPRPRPRPYHSPRP, for which the “shrunken log2 fold change” value is -0.133.

Take RRIRQRPPRLPRPRPRPMNDPRP: the “shrunken log2 fold change” value was -0.227.

In the case of RRIRGRPPRLPRPRPRPSPYPRP, the “shrunken log2 fold change” value is -0.148.

Consider RRIRMRPPRLPRPRPRPPPYPRP, for which the “shrunken log2 fold change” value amounted to 1.15.

Turning to RRIRPRPPRLPRPRPRPGCHPRP, the “shrunken log2 fold change” value was 0.332.

Take RRIRSRPPRLPRPRPRPRMTPRP: the “shrunken log2 fold change” value is 0.251.

Turning to RRIRYRPPRLPRPRPRPVGHPRP, the “shrunken log2 fold change” value is -0.076.

With RRIRCRPPRLPRPRPRPKSIPRP, the “shrunken log2 fold change” value is -0.349.

Take RRIRSRPPRLPRPRPRPYWLPRP: the “shrunken log2 fold change” value is -0.248.

As to RRIRYRPPRLPRPRPRPYLPPRP, the “shrunken log2 fold change” value is -0.174.

Consider RRIRQRPPRLPRPRPRPNASPRP, for which the “shrunken log2 fold change” value is -0.015.

Regarding RRIRRRPPRLPRPRPRPSEPPRP, the “shrunken log2 fold change” value was 0.115.

With RRIRFRPPRLPRPRPRPQQVPRP, the “shrunken log2 fold change” value was 0.0179.

In the case of RRIRGRPPRLPRPRPRPDSKPRP, the “shrunken log2 fold change” value was found to be 0.125.

For RRIRRRPPRLPRPRPRPQCGPRP, the “shrunken log2 fold change” value was 0.317.

Consider RRIRHRPPRLPRPRPRPWVYPRP, for which the “shrunken log2 fold change” value was -0.125.

Take RRIRERPPRLPRPRPRPQQTPRP: the “shrunken log2 fold change” value is -0.0895.

RRIRQRPPRLPRPRPRPYFYPRP: the “shrunken log2 fold change” value is -0.652.

RRIRQRPPRLPRPRPRPWMDPRP: the “shrunken log2 fold change” value is -0.118.

For the sequence RRIRMRPPRLPRPRPRPYWWPRP, the “shrunken log2 fold change” value was determined as 0.0238.

Take RRIRIRPPRLPRPRPRPVEKPRP: the “shrunken log2 fold change” value is -0.126.

For the sequence RRIRWRPPRLPRPRPRPTPIPRP, the “shrunken log2 fold change” value came to 0.419.

For RRIRSRPPRLPRPRPRPKEKPRP, the “shrunken log2 fold change” value was -0.00788.

Take RRIRDRPPRLPRPRPRPADHPRP: the “shrunken log2 fold change” value was -0.0509.

Take RRIRERPPRLPRPRPRPWKNPRP: the “shrunken log2 fold change” value is -0.0553.

With RRIRPRPPRLPRPRPRPPECPRP, the “shrunken log2 fold change” value was determined as 0.338.

For RRIRNRPPRLPRPRPRPCRPPRP, the “shrunken log2 fold change” value was -0.197.

Regarding RRIRIRPPRLPRPRPRPHYRPRP, the “shrunken log2 fold change” value was -0.204.

For the sequence RRIRHRPPRLPRPRPRPFRFPRP, the “shrunken log2 fold change” value was -0.132.

Consider RRIRPRPPRLPRPRPRPYKKPRP, for which the “shrunken log2 fold change” value was -0.574.

Consider RRIRLRPPRLPRPRPRPYVVPRP, for which the “shrunken log2 fold change” value was -0.481.

In the case of RRIRFRPPRLPRPRPRPNIHPRP, the “shrunken log2 fold change” value was -0.814.

On to RRIRNRPPRLPRPRPRPGKAPRP, for which the “shrunken log2 fold change” value is -0.181.

For RRIRFRPPRLPRPRPRPYKGPRP, the “shrunken log2 fold change” value is -0.631.

As for RRIRGRPPRLPRPRPRPTWRPRP, the “shrunken log2 fold change” value was 0.673.

In the case of RRIRVRPPRLPRPRPRPICYPRP, the “shrunken log2 fold change” value amounted to 0.19.

For RRIRYRPPRLPRPRPRPDCGPRP, the “shrunken log2 fold change” value was -0.398.

As to RRIRGRPPRLPRPRPRPKVIPRP, the “shrunken log2 fold change” value stood at 0.197.

For RRIRQRPPRLPRPRPRPRTEPRP, the “shrunken log2 fold change” value came to 2.94.

RRIRRRPPRLPRPRPRPPCPPRP: the “shrunken log2 fold change” value is 0.641.

Turning to RRIRHRPPRLPRPRPRPLCRPRP, the “shrunken log2 fold change” value came out at 0.0244.

On to RRIRRRPPRLPRPRPRPHVHPRP, for which the “shrunken log2 fold change” value was 0.0274.

In the case of RRIRMRPPRLPRPRPRPEVAPRP, the “shrunken log2 fold change” value was 3.75.

With RRIRQRPPRLPRPRPRPMWRPRP, the “shrunken log2 fold change” value stood at 0.279.

RRIRWRPPRLPRPRPRPRVMPRP: the “shrunken log2 fold change” value was 0.275.

In the case of RRIRMRPPRLPRPRPRPTDFPRP, the “shrunken log2 fold change” value is -0.0135.

For RRIRWRPPRLPRPRPRPNQLPRP, the “shrunken log2 fold change” value was -0.208.

Turning to RRIRHRPPRLPRPRPRPNTVPRP, the “shrunken log2 fold change” value was 0.0932.

As to RRIRNRPPRLPRPRPRPYMCPRP, the “shrunken log2 fold change” value is -0.18.

Turning to RRIRQRPPRLPRPRPRPVLCPRP, the “shrunken log2 fold change” value is -0.238.

Consider RRIRIRPPRLPRPRPRPIAFPRP, for which the “shrunken log2 fold change” value is -0.0789.

RRIRPRPPRLPRPRPRPLYKPRP: the “shrunken log2 fold change” value was -0.247.

Consider RRIRKRPPRLPRPRPRPYNQPRP, for which the “shrunken log2 fold change” value was -0.312.

RRIRMRPPRLPRPRPRPGTIPRP: the “shrunken log2 fold change” value amounted to 0.228.

Turning to RRIRARPPRLPRPRPRPMPQPRP, the “shrunken log2 fold change” value is 0.378.

Turning to RRIRSRPPRLPRPRPRPEAWPRP, the “shrunken log2 fold change” value came out at 0.0495.

Take RRIRCRPPRLPRPRPRPCKWPRP: the “shrunken log2 fold change” value was -0.208.

Take RRIRHRPPRLPRPRPRPRSDPRP: the “shrunken log2 fold change” value was -0.123.

Turning to RRIRKRPPRLPRPRPRPYGMPRP, the “shrunken log2 fold change” value was -0.284.

As for RRIRIRPPRLPRPRPRPMCLPRP, the “shrunken log2 fold change” value was -0.425.

With RRIRLRPPRLPRPRPRPRSGPRP, the “shrunken log2 fold change” value was 0.122.

On to RRIRRRPPRLPRPRPRPFPIPRP, for which the “shrunken log2 fold change” value came to 0.199.

RRIRRRPPRLPRPRPRPRFIPRP: the “shrunken log2 fold change” value is 0.00289.

RRIRQRPPRLPRPRPRPTHLPRP: the “shrunken log2 fold change” value was found to be 0.205.

RRIRNRPPRLPRPRPRPDEPPRP: the “shrunken log2 fold change” value is -0.061.

RRIRGRPPRLPRPRPRPDACPRP: the “shrunken log2 fold change” value was 1.23.

As for RRIRTRPPRLPRPRPRPAKFPRP, the “shrunken log2 fold change” value is -0.00176.

RRIRFRPPRLPRPRPRPTDWPRP: the “shrunken log2 fold change” value amounted to 0.335.

With RRIRIRPPRLPRPRPRPWHDPRP, the “shrunken log2 fold change” value was -0.676.

Take RRIRYRPPRLPRPRPRPCYNPRP: the “shrunken log2 fold change” value was -0.857.

Regarding RRIRNRPPRLPRPRPRPHDQPRP, the “shrunken log2 fold change” value is 0.0402.

In the case of RRIRIRPPRLPRPRPRPFDSPRP, the “shrunken log2 fold change” value is 0.0157.

RRIRRRPPRLPRPRPRPTNSPRP: the “shrunken log2 fold change” value was 1.15.

For the sequence RRIRFRPPRLPRPRPRPKMMPRP, the “shrunken log2 fold change” value was -0.147.

Turning to RRIRDRPPRLPRPRPRPLVFPRP, the “shrunken log2 fold change” value is -0.0186.

For the sequence RRIRFRPPRLPRPRPRPGVFPRP, the “shrunken log2 fold change” value is -0.227.

As to RRIRWRPPRLPRPRPRPMCDPRP, the “shrunken log2 fold change” value stood at 0.116.

Turning to RRIRMRPPRLPRPRPRPLIAPRP, the “shrunken log2 fold change” value amounted to 0.34.

In the case of RRIRARPPRLPRPRPRPSYHPRP, the “shrunken log2 fold change” value was -0.255.

Take RRIRQRPPRLPRPRPRPGEIPRP: the “shrunken log2 fold change” value is -0.366.

Take RRIRIRPPRLPRPRPRPIWFPRP: the “shrunken log2 fold change” value is -0.164.

Turning to RRIRNRPPRLPRPRPRPDTNPRP, the “shrunken log2 fold change” value was -0.141.

Turning to RRIRPRPPRLPRPRPRPWRPPRP, the “shrunken log2 fold change” value was found to be 0.12.

Turning to RRIRWRPPRLPRPRPRPHTNPRP, the “shrunken log2 fold change” value was -0.283.

In the case of RRIRPRPPRLPRPRPRPPGMPRP, the “shrunken log2 fold change” value was found to be 0.501.

Turning to RRIRRRPPRLPRPRPRPAPSPRP, the “shrunken log2 fold change” value was found to be 0.809.

Turning to RRIRPRPPRLPRPRPRPSTSPRP, the “shrunken log2 fold change” value is -0.0506.
